The data set deals with the molecule itself. In words: cross-linking.

Broadly, the stoichiometry N is the number of molecules, sites or subunits per partner or assembly.

B1: msfGFP-GRP8^WT (Arabidopsis thaliana Glycine-Rich RNA-Binding Protein 8 fused to monomeric superfolder GFP) (natural protein, UniProt Q03251 1-169, looked up)
chain: MSEVEYRCFVGGLAWATNDEDLQRTFSQFGDVIDSKIINDRESGRSRGFGFVTFKDEKAMRDAIEEMNGKELDGRVITVNEAQSRGSGGGGGGRGGSGGGYRSGGGGGYSGGGGGGYSGGGGGGYERRSGGYGSGGGGGGRGYGGGGRREGGGYGGGDGGSYGGGGGGW
As to B1, the “stoichiometry N” value is 2.

B2: msfGFP-GRP8^R7A (natural protein, Arabidopsis thaliana, UniProt Q03251 1-169, looked up)
chain: MSEVEYACFVGGLAWATNDEDLQRTFSQFGDVIDSKIINDRESGRSRGFGFVTFKDEKAMRDAIEEMNGKELDGRVITVNEAQSRGSGGGGGGRGGSGGGYRSGGGGGYSGGGGGGYSGGGGGGYERRSGGYGSGGGGGGRGYGGGGRREGGGYGGGDGGSYGGGGGGW
As for B2, the binding result is on record as “binds”.

The values are drawn from publication doi:10.1101/2023.12.13.571504 (bioRxiv, 2023).
